In a protein production outcome set (Wang et al. 2014):

Test: label from the status in PepcDB records

Sequence | protein production
MGLFAKITTASDPRTARIAGILLMLLAMLAFSFADAAGKTVVAIYSVGQLLVLRALAGLLVLSPLIWRQRKAFLQLERPGLQLARTLIAACEVAVFYLATAYLPLADVITFYLASSLFVSVGAALFLGETIDRPRGIAIVVGFVGVLIALQPSTQTMSWPALIAILASVLFAGLLLLTRFLRQTPDMVLASQQFAGTLLLGLVLAPSGWITPSATDLVWFAISGAVSAVGLLCVNRSLRLAPASVVVPYQYTMIIFAAAFGWLLFGDVPSRATVAGVAIIIAAGLYLGWRERSTSRPPVGG | failed
MQEQRQQLLRSLEALIFSSEEPVNLQTLSQITAHKFTPSELQEAVDELNRDYEATGRTFRIHAIAGGYRFLTEPEFADLVRQLLAPVIQRRLSRSMLEVLAVVAWHQPVTKGEIQQIRGASPDYSIDRLLARGLIEVRGRADSPGRPLQYGTTEVFLDLFHLPSLKDLPKLREIKEILQEHEEQQYLAADGDLPVAADEDEKPRMERIE | not failed
MAEEQAATAMETSAVEKQPETTTEAEAPSLTTKRMVVAIDESDSSFYALQWVIDHFSNLLLTTAAAEAESGMLTVIHVQSPFNHFAAFPAGPGGATAVYASSSMIESVKKAQQETSAALLSRALQMCRAKQIRTETLVLEGEAKEMICEAVEKMHVDLLVVGSRGLGKIKRAFLGSVSDYCAHHANCPILIVKPPKEMTK | failed
MNYLPMMIVFPLIMAIIMNLLHGKEKAVKYITFITAAILIILPFISQYGYYYFGGHGVVNGWVSGIAYLYNPAKQAIIVTLSLIASLVLITGMGEKLKNNMFVTLSLMGFASIAAIVLADDIFNLYVFFEIVSIVQAGLVFLSGTEEAYKAGLRYMIMGNVAAALMLLGIAFLLASTGTLNITDMKHYLLVDNPMIYGGLLLLIVGLAYGAGLPPFHNVKADLYARSKGFISAMLQTYSKFVLVGLMIIILKLFNGLDYFASAHAVLIALGVLAMVFGVVMALLQSDYKKLLAYHAISQGGYVATGLALGTPLGIVAGIFHAINHVIYKSALFLGAYIVSCKRGSNLHKLGGLLPLMPSVAFMVLCAKLAISGIPPFNGFQSKWMLAQAAMQVNMPEIAIIMIIVSIGTFVSMMKAFYLIYLKPVDEETLKEYQNKEVPKLAVFSLFVLTALCIIIGLYPDIVTNYLWDYAKELGVNYYLK | failed
MRPEIAVLDIQGQYRVYTEFYRADAAENTIILINGSLATTASFAQTVRNLHPQFNVVLFDQPYSGKSKPHNRQERLISKETEAHILLELIEHFQADHVMSFSWGGASTLLALAHQPRYVKKAVVSSFSPVINEPMRDYLDRGCQYLAACDRYQVGNLVNDTIGKHLPSLFKRFNYRHVSSLDSHEYAQMHFHINQVLEHDLERALQGARNINIPVLFINGERDEYTTVEDARQFSKHVGRSQFSVIRDAGHFLDMENKTACENTRNVMLGFLK | failed
MFYHDFRTMLIRLRAQFIKELLCILRDPRNRVVVFVPPLMQLLIFSYAATMEVRNLDIAVYNQDTGRAAQELVWHLEAARFIAQVHHVHSNTALREQLVQGKVIAAIAIPADFSRTVAVSGSGHAQVLVDGRRSNSGQIVVGYLSSIARDIRFTADTAPIPETSVTVRHWFNPNLVYLWFMVPGLTGTLAFFSALMITALSIARERELGTFDQLLVSPASTLEIILSKSLPALVISSLLALLMITLAIWFFRIPFTGSFGLLLIGLVLFILSAVGIGLVISAISMTQQQAILGGFVIGVPTVLISGFATPVENMPLLLQWLAQAIPLTHFLIIIEGCFLKALPPRDVLANLWPLAVIAFTMLPIAMIFARSRLQ | failed
MADQLYLENIDEFVTDQNKIVTYKWLSYTLGVHVNQAKQMLYDYVERKRKENSGAQLHVTYLVSGSLIQNGHSCHKVAVVREDKLEAVKSKLAVTASIHVYSIQKAMLKDSGPLFNTDYDILKSNLQNCSKFSAIQC | failed
MGGGDGRRIDAFVSYSRAADSRLAPSIQRGLARLAKKWYRTRALNVFRDQTDLSASHALGASIERALADARFFVLLASPAAAESKWVAKEIEFWQRNRTSDTFLVALTDGTIRWDDEAGDFDWSVTDALPRSLSGYFEAEPLWQDLTWSRDADRLSLWHAGFRDAVATLAAPIHGSSKRALDNAEVKEHRALLLVGALATALILTLAVSFGIQYWFATAERDRANANARDATVMSAIQRAQVELADAETGYDVSAYRRLMAARSLAGRPSVEGAAYDAALDAAYSRPNLLRVTEVDSGPDSRAAMTVDGGRVAFGGKEQPTLWSPGTGRPSGPALEAAETTDSKALALAFSRDGKRLAAAYEAAVVLWDVASGKKINEFATDRRTTTSLALSPDGTTVAVAGGGLRIWDAGSGRRIGEPLGVTGDRVVFSPDGRKLAFDALNDGGSEVHVRGVGAEGAGEVVIPYPHDVISGIAFTPDTDALAVGTEDGGLRLWDPDSGAAEGRAMSGHQGAIRAIAFAAGGSRIATAGADRTIRQWNAETGSPIGFPLTGHAGPVDFIAFSRGGSELVSLGEDATLRRWDAGNALLRTGPDDASAPDALAVAPRGAKVAVGGREGVRVFNQETGVQVAALDLPQGVLSLSYSPDGTSLLIVSPDALRLWEEGAEARTVTLDSSVGPVAGAAFMPHGRQIVVGSYAGKLLFEDLDDEATGTPGASIDITCAARHLAVSQDGMQVAYACDDTGGVADAEAGGVRTFEAEDRVSALVISPDGRTLILGTLDGTLWRLEHGAEALVGVGVHRGAVRSVAYGPDGRWFASAGEDGSVVVHPHGAREISARIPAHTGPVEAVAFSGDGSRLISLGADKAARVWHVFRDPPGDLCERITYNMSESDWKKWISDSFGYRDQCAGKPRAHG | failed
MTNPETASDNSRDLVLVRRFDAPCDLVFRAWTDPKALAQWCGPHGFKAVGDRLEAWPGGRHRACLIAPDGEEHWVGGKYLEVEPPHRLVFTHAWETGAGETSPETIVTITLRESDGGTEMTFRQSGFASVSSLEGHESGWSQSFERLSSFLGTGSEGLNHA | failed
MSYFDQDDKEVLAPNSDVIAATTTTATTATHGIEVATEFKPVEHPVEPLDNDLPIQCPLPEPSILNDGRIWKERVSASMRRKGDLQIVKDEAASESDGSAPKPPRPPQPNRSILPSLSAPEHNLLNLLEECNAMPPVTSKNG | failed
TQVADNEYLVQGRMLIDEFNEVFETDLHMSDVDTMAGYLITALGTIPDEGEKPSFEVGNIKLTAEEMEGTRLLVLRVHFYDEETVDEEPEENRRFFRKEMEDDEPRR | not failed
MIMANWQSIDELQDIASDLPRFTHALDELSRRLGLDITPLTADHISLRCHQNVTAERWRRGFEQCGELLSENMINGRPICLFKLHEPVQVAHWQFSIVELPWPGEKRYPHEGWEHIEIVLPGDPETLNARALALLSDEGLSLPGISVKTSSPKGEHERLPNPTLAVTDGKTTIKFHPWSIEEIVASEQSA | not failed
MRIEPRPLPETLPDLGDLPPLLARLYAARGVRCAEELDKGLARLIPYQRLKGIEEGVALLVDALEGGQRILIVGDFDADGATASSVGVLALRMLGAAWVDYLVPNRFEYGYGLTPEIVGVALEKRPDLLVTVDNGISSVDGVQAAKAAGLKVLVTDHHLPGPELPAADAIINPNQPGCEFPSKA | failed
MLKNFNGRPSLATVLKASTVAGIAAAVLATGVPLEITRSYAEAVKVQAPAVPSFANVVDAVSPAVVSVRVENRVNPVSDNNNDGFSFDFNGRGFDDLPDDHPLKRFFKQFGQDPNDQQGHSRRFGQNGPNGGPNGPGGKGRLRPVAQGSGFFISEDGYIVTNNHVVSDGQAFVAVMNDGTELDAKLIGKDPRTDLAVLKVDGKGKKFTYVNWADDNNVRVGDWVVAVGNPFGLGGTVTAGIVSARGRDIGSGPYDDYLQVDAAVNRGNSGGPTFNLSGEVVGINTAIFSPSGGSVGIAFAIPASTARDVVADLMKDGQVSRGWLGVQIQPVTKDIAESIGLSEPSGALVVAPQAGSPGDKAGMKAGDVVTALNGETIKDARDLSRRIGAMQPGSKVELSVWRAGKAQPLTVELGTLPIDQKDASADDNSQPQQPEAPASEKALADLGLTVGPSDDGKGLAITGIDPDSDAADKGIKEGEKITSVNNQEVASPEDVVKVLNQAKKDGRTRALFQIQSNEGSRFVALPINGQG | failed
MNQNKITAGGLEFLVRFAAPTDRLKINDLMIDTARWLKESGSTQWSDILHGFDVHNIEQRIELGEVALFETEAGALAGAMIIRKTPSDWDTDLWEDLAIDKAYYLHRIMVSRAFSGISLSKQMIYFAEKLGIEMSVPFIRLDCIESNETLNQMYVRYGFQFSGKKNGFYLYQKELSQK | not failed
VQFSLLHSKFHLCSVATRALLLSTYIKFINLFPETKATIQGVLRAGSQLRNADVELQQRAVEYLTLSSVASTDVLATVLEEMPPFPERESSILAKLKRKKGPGAGSALDDGRRDPSSNDINGGME | failed
MKMMDANEIISFIQNSTKSTPVKVYVKGELEGINFGESAKAFINGNTGVVFGEWSEIQTAIEENQSKIEDYVVENDRRNSAIPMLDLKNIKARIEPGAIIRDQVEIGDNAVIMMGASINIGSVIGEGTMIDMNVVLGGRATVGKNCHIGAGSVLAGVIEPPSAKPVVIEDDVVIGANAVVLEGVTVGKGPVVAAGAIVVNDVEPYTVVAGTPAKKIKDIDEKTKGKTEIKQELRQL | not failed
MEIILLIIAAVVLFYFYNTLKEYLKNPLNPKTKTEEYDLKNDPYLLAQSSPLDKFKQTQTGAYMRLLKFLDIQKNALDNALRTLFIHELEQPLNSEQQNLAKELLNEPVDKKENFESLCQEIADHTHGEYTKRLKLVEFLMLLAYADGILDSKEKELFLDVGVFLQIDNQDFNELYDNFERFNAIEIPMSLEEAKSLFEIQTHTTKQDLEKKALDLSAPYYHKMNDNKRYSEQDFISLKKIAIASQLLENDLKDS | failed
MNELILLRQLAENQQYPSLLELAQSLWYDSGNPAVLPLLATANAHMGLKENTQALYQQSLKHFDVLDVDARCDLAVVLIVMQRIDDAIKMLSDILMEQGNHALALARLAYCYLASGRLAEAQHFFEKSLIITPERFIVHRNLVAVYIAQNELNQAQKQLDSATEVLVNYHKVGDPLYQQYWFQLNTTQLQLWVVQGLFCPAEEWLTQLSVRQQAGDYDEAVLVQYVKSYSQVLAEKNFHQQATNILREYLKQYNNNVELCMALAELAQVQGHFMQAISLLQKALKKDEGNSDLWVQLSTACLHRFDKKARKAAVRAVSLAEALEITDEQSLVLIKMKQAQANNALAEVECQEQNFEVSEKLYRDILAEHSHFLPALQGLGQQQMQQGNIDEAVALFERIKDIDLLKGCSALINVRRFPDDVEALDKMAIAANKPSMEGSLRAGILFQLAAAWEKKKDYNKAFRFAEQANNASKKFLSYNAQKHREDCARLRACFNKTLYQHRPNYGIESTIPVYVLGMPRSGTTLVEQILSGHSDIFGAGELGVIPQVIQGINRWERHTGSGRQYPDCIDDFNADTIAGIANNMLKELQELAAETKPESKYVVDKMPHNFENIGLIKFLFPNAKIISVRRDPRDIAMSNYFTDYQAKHGGMGFAYDLEHIGEQLADHNLLMHHWQQTFPDEILEINYEDVVDDIEGCARKMLSYIGVNWQPKVLKFNELVRTVKTASVWQVRQPIYKTSKGKWLRYQTRLTPLIKGTNAKIVSHPITDLLTLPEPGFLTDGVALYKEGKLDDAEMCFKKMLHHNPGHAACHYMIGLVYLTKNHAQDGIRHFEKAVASCPWQKEWRQNLLKAYEQEGETNKIAAFKKGNQRTTANDANNAVTYDEHFTSDAFTTKTTVSQ | failed
MAHRRDRGLLGIWGDLVLTSVFIAAVSLALFWMAAFTLWWQMHAWRTPEVLASTRFSRPDGGEGLSFSLLLPARHEQAVLDHTIQRLLESSHTDFEIIVIVGHDDPETTEVARKAAARDERVRVVVDTHEKKNKPKAMNTALPHCRGDVVGVFDAEDQVHPELLAHVDHAFRSTGADVVQGGVQLINFNSSWYSLRNCLEYFFWFRSRLHLHAQKGFIPLGGNTVFVRTDVLKEADGWDPDCLAEDCDLGVRLSSVGKKVVVAYDSDMVTREETPGSLMSLLKQRTRWNQGFLQVYRKKDWKQLPGFGQRLLARYTLMTPFLQAISGVIIPLNAAVALFLDVPVGIAFITFLPAVTAFVTFVFEVVGLHDFGKQYGLRVRSVHYLKLIVGGPFYQVLLAGAAIRAVWREQRGRNDWELTSHVGAHLTEVIREDVPA | failed
